From publication PMC11086051

T1: SpoVG (Borrelia burgdorferi, UniProt O51726 1-97)
T1 sequence: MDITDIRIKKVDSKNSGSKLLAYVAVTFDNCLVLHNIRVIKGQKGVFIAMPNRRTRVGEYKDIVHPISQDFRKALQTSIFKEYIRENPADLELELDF


Key:
SpoVG [1] = target: T1, SpoVG; assay: competition
SpoVG [2] = target: T1, SpoVG; assay: EMSA
SpoVG [3] = target: T1, SpoVG; assay: competition; remark: listed apart in the source

Binder | IC50 (SpoVG [1]) [nM] | Kd (SpoVG [2]) [nM] | binding result (SpoVG [3])
UAUGUACUUUUUGCGGGAGGCUUAUAA (ssRNA) [spoVG RNA] | 1030 | 59 | 
UAUGUACUUAAAGCGGGAGGCUUAUAA (ssRNA) [RNA-20] |  |  | binds
UAUGUACAAAAAGCGGGAGGCUUAUAA (ssRNA) [RNA-03] |  |  | binds
UAUGUACUUUAAGCGGGAGGCUUAUAA (ssRNA) [RNA-17] |  |  | binds
